Positions count from the first letter of the chain named.
Legend:
[1] = target: FAM19A1 (UniProt Q7Z5A9 20-133); experiment: Western blot on extracts of HEK293T cells stably transfected with FAM19A family genes
Procedure: (§1) HEK293T cells stably transfected with genes encoding the FAM19A family of proteins were lysed in buffer containing 50 mM Tris-HCL (pH 6.8), 2% SDS, 10% glycerol, 100 mM mercaptoethanol, and bromophenol blue. Whole-cell extracts were resolved on SDS-polyacrylamide (PAGE) gels and transferred to nitrocellulose blotting membranes in a Bio-Rad Trans-Blot electrophoresis apparatus (Hercules, CA, USA). The blots were blocked in Tris-buffered saline containing 0.3% Tween 20 and 5% skim milk, and incubated with anti-FAM19A5 antibody at room temperature for 3 h. They were then washed three times with TBS/0.3% Tween 20. Antibody binding was subsequently detected by incubation with secondary antibodies linked to horseradish peroxidase (Jackson ImmunoReserch Laboratories, West Grove, PA, USA). The blots were washed three times, and immunoreactive bands were visualized by exposure to X-ray film for 0.5 or 10 min, after application of GE healthcare ECL reagents (Buckinghamshire, UK). […] Cells were then blocked with 3% BSA and 0.1% Triton X-100 in PBS for 30 min at room temperature. Primary antibody (the anti-FAM19A5 antibody 1-65) was applied overnight at 4° C. After several washes with PBS, appropriate secondary antibodies were applied for 30 min. Subsequently, the cells were washed, mounted, and observed under a fluorescence or confocal microscope (LSM700; Zeiss, Goettingen, Germany). Nuclei were stained with Hoechst 33342.

[2] = target: T1, FAM19A2 (UniProt Q8N3H0 31-131, limits assumed); experiment: as above
T1 construct: Member of the group other FAM19A subfamily proteins; also called other FAM19A subfamily proteins; other proteins in the FAM19A subfamily
T1 sequence (Q8N3H0 31-131 limits assumed): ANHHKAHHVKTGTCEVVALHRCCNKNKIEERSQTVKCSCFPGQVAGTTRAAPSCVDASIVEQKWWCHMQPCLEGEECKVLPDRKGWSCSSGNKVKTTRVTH
Procedure: as §1

[3] = target: T2, FAM19A3 (UniProt Q7Z5A8 31-133, limits assumed); experiment: as above
T2 construct: Member of the group other FAM19A subfamily proteins; also called other FAM19A subfamily proteins; other proteins in the FAM19A subfamily
T2 sequence (Q7Z5A8 31-133 limits assumed): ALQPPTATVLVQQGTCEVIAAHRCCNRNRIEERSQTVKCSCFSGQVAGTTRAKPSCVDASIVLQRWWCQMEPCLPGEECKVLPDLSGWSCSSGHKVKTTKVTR
Procedure: as §1

[4] = target: T3, FAM19A4 (UniProt Q96LR4 36-140, limits assumed); experiment: as above
T3 construct: Member of the group other FAM19A subfamily proteins; also called other FAM19A subfamily proteins; other proteins in the FAM19A subfamily
T3 sequence (Q96LR4 36-140 limits assumed): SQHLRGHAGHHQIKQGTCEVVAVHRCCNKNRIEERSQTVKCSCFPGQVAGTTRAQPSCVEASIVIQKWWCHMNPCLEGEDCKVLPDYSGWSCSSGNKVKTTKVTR
Procedure: as §1

[5] = target: T4, FAM19A5-M1; experiment: ELISA on phage-displayed FAM19A5 mutants; y axis without label; IgG only bars 0.02 to 0.2
T4 construct: also called FAM19A5 mutant M1
T4 FAM19A5 mutant: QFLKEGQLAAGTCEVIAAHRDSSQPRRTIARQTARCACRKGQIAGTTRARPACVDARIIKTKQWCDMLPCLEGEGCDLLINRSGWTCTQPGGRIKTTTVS

[6] = target: T5, FAM19A5-M2; experiment: as above
T5 construct: also called FAM19A5 mutant M2
T5 FAM19A5 mutant: T4 FAM19A5 mutant with V15I, I16V, A17T, A18L, H19D, D21C, S22C, S23N, Q24K, P25N

[7] = target: T6, FAM19A5-M4; experiment: as above
T6 construct: also called FAM19A5 mutant M4
T6 FAM19A5 mutant: T4 FAM19A5 mutant with V15I, I16V, A17T, A18L, H19D, A34V, R35K, A37S, R39F, K40P

[8] = target: T7, FAM19A5-M5; experiment: as above
T7 construct: also called FAM19A5 mutant M5
T7 FAM19A5 mutant: T4 FAM19A5 mutant with V15I, I16V, A17T, A18L, H19D, A49N, R50K, A52S

binding result [1]: no binding | binding result [2]: no binding | binding result [3]: no binding | binding result [4]: no binding | binding result [5]: binds | binding result [6]: binds | binding result [7]: binds | binding result [8]: binds
B1: chimeric anti-FAM19A5-IgG2/4 monoclonal antibody (1-65) (antibody, V domains shown)
VH: AVTLDESGGGLQTPGGALSLVCKASGFTFSSYQMGWVRQAPGKGLEWVGVINKSGSDTSYGSAVKGRATISRDNGQSTVRLQLNNLRAEDTGTYFCAKGSASYITAATIDAWGHGTEVIVSS
VL: ALTQPSSVSANPGETVKITCSGGGSSGYGYGWYQQKSPSSAPLTVIYWNDKRPSDIPSRFSGSKSGSTHTLTITGVQAEDEAVYFCGNDDYSSDSGYVGVFGAGTTLTVL
notes: Chicken-derived variable domains; also called anti-FAM19A5 antibody 1-65; Anti-FAM19A5 (1-65)

From US20250236663A1 (NEURACLE SCIENCE, published 2025)
